Source: PMC8287928

B1: MSA4 (structured_DNA)
DNA: TTACGTCAAGGTGTCACTCCTGTGGGCGGGGGCGGTTGATTGTATTACTGTCGGGAGGGGGAAGCATCTCTTTGGCGTG
B2: MSA1 (structured_DNA)
DNA: TTACGTCAAGGTGTCACTCCCACTTTCCGGTTAATTTATGCTCTACCCGTCCACCTACCGGAAGCATCTCTTTGGCGTG
B3: MSA7 (structured_DNA)
DNA: TTACGTCAAGGTGTCACTCCTGGCTGTGGGGTTCGGGGTCACTATTTGTCGGGAGGGGAGGAAGCATCTCTTTGGCGTG
B4: MSA2 (structured_DNA)
DNA: TTACGTCAAGGTGTCACTCCTCAGTGGGAGGGGGTCCATGTCTTGTCGGGGTCGGGGGTGGAAGCATCTCTTTGGCGTG
B5: MSA5 (structured_DNA)
DNA: TTACGTCAAGGTGTCACTCCACGGGTTTGGCGTCGGGCCTGGCGGGGGGATAGTGCGGTGGAAGCATCTCTTTGGCGTG
B6: MSA8 (structured_DNA)
DNA: TTACGTCAAGGTGTCACTCCATGTGGGTGGGGGTCATTCTTCAGTGTCGGGAGGGGGTGGAAGCATCTCTTTGGCGTG
B7: MSA3 (structured_DNA)
DNA: TTACGTCAAGGTGTCACTCCTACAGCGTCTGGTTGGTTTGGTTGGATCTTCGATCGCTGTGAAGCATCTCTTTGGCGTG
B8: MSA10 (structured_DNA)
DNA: TTACGTCAAGGTGTCACTCCGCGGGTTTGGCTCCGGGCCTGGCGTTGCGGTCTGCTCCCCGAAGCATCTCTTTGGCGTG
B9: MSA6 (structured_DNA)
DNA: TTACGTCAAGGTGTCACTCCTCGGGGGGGTTTGGCACTGGGCCTGGCAGTACCGGGTCGCGAAGCATCTCTTTGGCGTG
B10: MSA9 (structured_DNA)
DNA: TTACGTCAAGGTGTCACTCCTTCGTGTGGGTGGGGTCCTAACTTTCCTGTCGGGGTCGGGGAAGCATCTCTTTGGCGTG

Experiments:
[1] = target: SARS-CoV-2 spike S1 subunit (SARS-CoV-2 (wild type), UniProt P0DTC2 16-685); conditions: protein: commercial; tags: His
[2] = target: HCoV-229E RBD (HCoV-229E, UniProt P15423 293-435); assay: dot blot (filter binding); 50 nM protein; conditions: protein: recombinant; tags: C-terminal His; hairpin
Sequence of HCoV-229E RBD (P15423 293-435): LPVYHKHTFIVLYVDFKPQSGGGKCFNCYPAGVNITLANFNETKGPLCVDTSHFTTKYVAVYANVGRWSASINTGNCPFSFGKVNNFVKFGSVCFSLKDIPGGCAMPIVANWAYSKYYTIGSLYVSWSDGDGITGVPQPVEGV

[3] = target: Human alpha-thrombin (human, UniProt P00734;P00734 315-363;364-622)
[4] = target: SARS-CoV-2 spike S1 subunit (SARS-CoV-2 (wild type), UniProt P0DTC2 16-685); conditions: protein: commercial; tags: His; remark: listed apart in the source
[5] = target: SARS-CoV-2 spike RBD (SARS-CoV-2, UniProt P0DTC2 319-541); conditions: protein: commercial
[6] = target: SARS-CoV-1 full spike protein (SARS-CoV-1, UniProt P59594 14-1195); conditions: protein: commercial; chain copies: 3; label: 5'-32P; hairpin
[7] = target: SARS-CoV-1 RBD (SARS-CoV-1, UniProt P59594 306-527); conditions: protein: recombinant; tags: C-terminal His; label: 5'-32P; hairpin
[8] = target: MERS-CoV RBD (MERS-CoV, UniProt K9N5Q8 367-588); conditions: protein: recombinant; tags: C-terminal His; label: 5'-32P; hairpin
Sequence of MERS-CoV RBD (K9N5Q8 367-588): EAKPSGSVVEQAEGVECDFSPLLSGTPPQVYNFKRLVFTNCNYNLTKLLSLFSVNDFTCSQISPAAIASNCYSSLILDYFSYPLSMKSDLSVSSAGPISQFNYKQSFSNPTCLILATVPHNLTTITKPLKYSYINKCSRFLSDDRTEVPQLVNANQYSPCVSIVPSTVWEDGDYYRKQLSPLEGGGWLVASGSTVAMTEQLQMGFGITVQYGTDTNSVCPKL

Binder	Kd [1] [nM]	further results
CTTCCACGGGTTTGGCGTCGGGCCTGGCGGGGGGATAGTGCGGTGGAAG (structured_DNA) [MSA5-T4]	6.3	
B1	27.6 ± 0.6	
B2		binding result [2]: no binding; binding result [3]: no binding; Kd [4]: 1.8 ± 0.4 nM
ACAGCGTCTGGTTGGTTTGGTTGGATCTTCGATCGCTGT (structured_DNA) [MSA3-T2]	1.9	
B3	76.2 ± 10.5	
TCCACGGGTTTGGCGTCGGGCCTGGCGGGGGGATAGTGCGGTGGA (structured_DNA) [MSA5-T1]	8.4	
B4	9.2 ± 0.2	
TTCCGGTTAATTTATGCTCTACCCGTCCACCTACCGGAA (structured_DNA) [MSA1-T2]		binding result [1]: binds
ACGGGTTTGGCGTCGGGCCTGGCGGGGGGATAGTGCGGT (structured_DNA) [MSA5-T2]	10.1	
B5	2.7 ± 0.2	binding result [2]: no binding; binding result [3]: no binding; Kd [5]: 4 ± 0.6 nM; binding result [6]: no binding; binding result [7]: no binding; binding result [8]: no binding
B6	23 ± 1	
CCGGTTAATTTATGCTCTACCCGTCCACCTACCGG (structured_DNA) [MSA1-T4]		fold Kd increase [1]: 36 fold Kd increase vs MSA1-T3
TCCGGTTAATTTATGCTCTACCCGTCCACCTACCGGA (structured_DNA) [MSA1-T3]	3.1	
TCCACGGGTTTGCTGGCGGGGGGATAGTGCGGTGGA (structured_DNA) [MSA5-T6]	264	
TCCACGGCGTCGGGCCTGGCGGGGGGATAGTGCGGTGGA (structured_DNA) [MSA5-T7]	22.8	
B7	1.9 ± 0.1	
B8	134 ± 21.3	
B9	16.2 ± 2.3	
CTCCACGGGTTTGGCGTCGGGCCTGGCGGGGGGATAGTGCGGTGGAG (structured_DNA) [MSA5-T3]	7.3	
B10	37.4 ± 1.6	
